The values that follow come from patent US20180244760A1.

Bounds are passed on as bounds.

Experiment [1] addresses Clostridium difficile toxin A (TcdA) (Clostridium difficile) (UniProt P16154). Description: cell-based or functional assay.
Experiment [2] has the same target. Description: ELISA, plate coated with 1 ug/ml TcdA. In general terms: ELISA stands for enzyme-linked immunosorbent assay.

Clostridium difficile toxin A (TcdA) (Clostridium difficile), sequence (P16154 whole entry): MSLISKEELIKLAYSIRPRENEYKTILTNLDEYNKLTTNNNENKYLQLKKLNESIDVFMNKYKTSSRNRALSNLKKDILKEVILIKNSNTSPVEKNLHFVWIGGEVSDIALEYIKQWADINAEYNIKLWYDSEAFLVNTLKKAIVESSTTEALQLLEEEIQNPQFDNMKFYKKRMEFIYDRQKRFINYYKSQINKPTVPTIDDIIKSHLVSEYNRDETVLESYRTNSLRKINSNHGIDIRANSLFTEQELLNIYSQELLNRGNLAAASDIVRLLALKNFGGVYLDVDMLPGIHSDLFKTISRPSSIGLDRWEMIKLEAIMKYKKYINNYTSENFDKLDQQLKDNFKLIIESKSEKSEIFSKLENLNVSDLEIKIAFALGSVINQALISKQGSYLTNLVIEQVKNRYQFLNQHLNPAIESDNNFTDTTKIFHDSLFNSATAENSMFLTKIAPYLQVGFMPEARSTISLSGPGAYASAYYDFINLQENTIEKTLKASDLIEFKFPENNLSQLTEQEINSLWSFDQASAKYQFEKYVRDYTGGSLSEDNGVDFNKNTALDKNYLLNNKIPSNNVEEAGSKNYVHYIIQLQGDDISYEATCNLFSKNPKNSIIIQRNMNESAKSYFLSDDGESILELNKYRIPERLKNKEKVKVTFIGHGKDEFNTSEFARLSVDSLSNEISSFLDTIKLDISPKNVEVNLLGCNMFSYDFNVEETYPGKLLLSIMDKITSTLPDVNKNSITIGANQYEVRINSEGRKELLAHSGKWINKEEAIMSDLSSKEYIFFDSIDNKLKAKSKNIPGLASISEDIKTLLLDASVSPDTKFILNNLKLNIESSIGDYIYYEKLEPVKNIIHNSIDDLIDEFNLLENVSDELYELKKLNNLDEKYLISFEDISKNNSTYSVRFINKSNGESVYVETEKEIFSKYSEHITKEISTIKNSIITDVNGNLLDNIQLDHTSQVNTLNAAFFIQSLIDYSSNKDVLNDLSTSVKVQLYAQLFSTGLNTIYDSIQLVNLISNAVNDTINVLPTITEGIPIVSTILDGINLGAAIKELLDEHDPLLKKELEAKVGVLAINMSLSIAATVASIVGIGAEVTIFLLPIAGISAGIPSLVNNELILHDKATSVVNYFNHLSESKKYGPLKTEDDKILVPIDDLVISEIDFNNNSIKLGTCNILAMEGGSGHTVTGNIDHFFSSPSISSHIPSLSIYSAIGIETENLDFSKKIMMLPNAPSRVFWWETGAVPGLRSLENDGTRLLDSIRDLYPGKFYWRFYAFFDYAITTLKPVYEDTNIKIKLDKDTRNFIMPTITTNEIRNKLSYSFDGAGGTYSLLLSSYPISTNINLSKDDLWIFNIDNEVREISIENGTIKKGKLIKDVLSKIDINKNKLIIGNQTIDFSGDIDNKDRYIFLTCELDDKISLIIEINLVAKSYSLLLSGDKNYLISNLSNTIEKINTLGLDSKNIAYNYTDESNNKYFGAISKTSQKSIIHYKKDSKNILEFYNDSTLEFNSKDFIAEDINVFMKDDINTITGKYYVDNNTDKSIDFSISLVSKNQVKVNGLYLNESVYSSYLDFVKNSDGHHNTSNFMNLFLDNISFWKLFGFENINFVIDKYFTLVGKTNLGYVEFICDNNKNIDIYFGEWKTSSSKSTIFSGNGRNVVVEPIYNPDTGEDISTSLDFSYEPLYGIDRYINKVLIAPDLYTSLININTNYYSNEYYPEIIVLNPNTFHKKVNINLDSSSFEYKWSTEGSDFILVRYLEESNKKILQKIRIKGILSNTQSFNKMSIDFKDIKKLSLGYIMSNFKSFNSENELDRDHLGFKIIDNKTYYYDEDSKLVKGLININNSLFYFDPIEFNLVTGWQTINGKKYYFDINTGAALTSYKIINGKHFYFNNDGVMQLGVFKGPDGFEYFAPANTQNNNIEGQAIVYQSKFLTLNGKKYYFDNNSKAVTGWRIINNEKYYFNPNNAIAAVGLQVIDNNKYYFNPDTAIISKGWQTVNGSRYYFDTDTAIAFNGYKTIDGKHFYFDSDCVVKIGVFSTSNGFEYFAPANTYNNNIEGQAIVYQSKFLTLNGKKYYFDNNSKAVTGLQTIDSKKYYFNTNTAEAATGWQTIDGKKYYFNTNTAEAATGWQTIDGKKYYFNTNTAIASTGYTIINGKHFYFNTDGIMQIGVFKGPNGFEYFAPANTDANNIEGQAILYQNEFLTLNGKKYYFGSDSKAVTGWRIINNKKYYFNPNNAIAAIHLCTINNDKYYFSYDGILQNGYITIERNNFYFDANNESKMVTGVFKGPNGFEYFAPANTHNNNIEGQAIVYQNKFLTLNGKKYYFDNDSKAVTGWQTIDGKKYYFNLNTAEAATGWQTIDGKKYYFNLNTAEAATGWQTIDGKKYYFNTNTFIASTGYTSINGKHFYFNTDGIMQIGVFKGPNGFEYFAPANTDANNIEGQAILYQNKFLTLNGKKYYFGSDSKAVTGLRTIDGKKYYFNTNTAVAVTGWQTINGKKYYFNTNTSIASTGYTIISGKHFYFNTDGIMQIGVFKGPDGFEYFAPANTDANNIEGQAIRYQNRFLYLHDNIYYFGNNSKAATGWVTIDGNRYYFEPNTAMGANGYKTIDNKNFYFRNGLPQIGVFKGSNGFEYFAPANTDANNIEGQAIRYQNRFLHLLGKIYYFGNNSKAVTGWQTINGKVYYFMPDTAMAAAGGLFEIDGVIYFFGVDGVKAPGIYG

The substance “Merck anti-TcdA human monoclonal antibody” registered a minimal dose of antibody protecting Vero cells from TcdA-induced cell rounding in experiment [1] of more than 10 nM. In addition, the EC50 (read off the curve) (commonly the concentration that produces a half-maximal response) in experiment [2] was 2 ng/mL.
